Data published in doi:10.1101/2021.10.01.462762 (bioRxiv, 2021).

What was measured:
[1] = biological target: Cra (Escherichia coli, UniProt P0ACP1 1-334); assay: EMSA
[2] = biological target: PdeL;Cra (Escherichia coli;Escherichia coli, UniProt P21514;P0ACP1 1-362;1-334, |); assay: EMSA
[3] = biological target: the molecule itself; assay: SEC-MALS
[4] = biological target: the molecule itself; assay: mass photometry
[5] = biological target: the molecule itself; assay: MST

Sequence of PdeL;Cra (P0ACP1 whole entry, chain 2 of 2, one chain of several): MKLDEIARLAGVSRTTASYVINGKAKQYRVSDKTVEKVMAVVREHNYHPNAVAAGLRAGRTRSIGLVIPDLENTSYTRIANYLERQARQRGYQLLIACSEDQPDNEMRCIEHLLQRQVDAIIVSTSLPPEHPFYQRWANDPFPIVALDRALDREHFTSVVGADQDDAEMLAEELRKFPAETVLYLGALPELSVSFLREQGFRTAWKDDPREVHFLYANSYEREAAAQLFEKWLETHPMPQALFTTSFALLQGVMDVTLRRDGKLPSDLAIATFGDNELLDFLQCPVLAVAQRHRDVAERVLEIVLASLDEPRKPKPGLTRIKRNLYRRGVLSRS
Sequence of Cra (P0ACP1 whole entry): as the sequence (P0ACP1 whole entry, chain 2 of 2, one chain of several) above

B1: CB CDB oligo (4695/4696) (dsDNA)
DNA 1: TGCTGAATGGATTCAGTCTTAATGAGTGGG
DNA 2: CCCACTCATTAAGACTGAATCCATTCAGCA
Kd [1]: 49 nM | Kd [2]: 76 nM

B2: PdeL L168R, tetramerization-deficient variant (enzyme, E. coli)
chain: NSCDFRVFLQEFGTTVHLSLPGSVSEKERLLLKLLMQGMSVTEISQYRNRSAKTISHQKKQLFEKLGIQSDITFWRDIFFQYNPEIISATGSNSHRYINDNHYHHIVTPEAISLALENHEFKPWIQPVFCAQTGVLTGCEVLVRWEHPQTGIIPPDQFIPLAESSGRIVIMTRQLMKQTADILMPVKHLLPDNFHIGINVSAGCFLAAGFEKECLNLVNKLGNDKIKLVLELTERNPIPVTPEARAIFDSLHQHNITFALDDFGTGYATYRYLQAFPVDFIKIDKSFVQMASVDEISGHIVDNIVELARKPGLSIVAEGVETQEQADLMIGKGVHFLQGYLYSPPVPGNKFISEWVMKAGG
stoichiometry N [3]: 2

B3: PdeL, full-length c-di-GMP phosphodiesterase and transcription factor of E. coli (enzyme, UniProt P21514 1-362, looked up)
chain: MNSCDFRVFLQEFGTTVHLSLPGSVSEKERLLLKLLMQGMSVTEISQYRNRSAKTISHQKKQLFEKLGIQSDITFWRDIFFQYNPEIISATGSNSHRYINDNHYHHIVTPEAISLALENHEFKPWIQPVFCAQTGVLTGCEVLVRWEHPQTGIIPPDQFIPLAESSGLIVIMTRQLMKQTADILMPVKHLLPDNFHIGINVSAGCFLAAGFEKECLNLVNKLGNDKIKLVLELTERNPIPVTPEARAIFDSLHQHNITFALDDFGTGYATYRYLQAFPVDFIKIDKSFVQMASVDEISGHIVDNIVELARKPGLSIVAEGVETQEQADLMIGKGVHFLQGYLYSPPVPGNKFISEWVMKAGG
stoichiometry N [3]: 4 | stoichiometry N [4]: 2 | Kd [5]: 9000 nM
